According to patent publication US10941182 (Amgen, dated 2021):
Starred links: 1 amine or outer side, 2 acyl side, 3 side chain; linkers in the order of their positions; H or OH if unused. Non-standard residues stand in square brackets, D forms with d. *: point of attachment. C18 diacid = O=C(O)CCCCCCCCCCCCCCCCC(=O)*; dBip = N[C@H](Cc1ccc(-c2ccccc2)cc1)C(=O)O; Oic = O=C(O)[C@@H]1C[C@@H]2CCCC[C@@H]2N1; Heptadecanoyl = CCCCCCCCCCCCCCCCC(=O)*; Phe(4-I) = N[C@@H](Cc1ccc(I)cc1)C(=O)O; γGlu = O=C(O)[C@H](CCC(=O)[*:2])N[*:1]; 2Nal = N[C@@H](Cc1ccc2ccccc2c1)C(=O)O; Pentadecanoyl = CCCCCCCCCCCCCCC(=O)*; NMeR = CN[C@@H](CCCNC(=N)N)C(=O)O; Tridecanoyl = CCCCCCCCCCCCC(=O)*; hArg = N=C(N)NCCCC[C@H](N)C(=O)O; Tic = O=C(O)[C@@H]1Cc2ccccc2CN1; Cha = N[C@@H](CC1CCCCC1)C(=O)O; NMeL = CN[C@@H](CC(C)C)C(=O)O; Nle = CCCC[C@H](N)C(=O)O; Orn = NCCC[C@H](N)C(=O)O; AEEA = NCCOCCOCC(=O)O

T1: human APJ receptor (human, UniProt P35414 1-380)
T1 sequence (looked up): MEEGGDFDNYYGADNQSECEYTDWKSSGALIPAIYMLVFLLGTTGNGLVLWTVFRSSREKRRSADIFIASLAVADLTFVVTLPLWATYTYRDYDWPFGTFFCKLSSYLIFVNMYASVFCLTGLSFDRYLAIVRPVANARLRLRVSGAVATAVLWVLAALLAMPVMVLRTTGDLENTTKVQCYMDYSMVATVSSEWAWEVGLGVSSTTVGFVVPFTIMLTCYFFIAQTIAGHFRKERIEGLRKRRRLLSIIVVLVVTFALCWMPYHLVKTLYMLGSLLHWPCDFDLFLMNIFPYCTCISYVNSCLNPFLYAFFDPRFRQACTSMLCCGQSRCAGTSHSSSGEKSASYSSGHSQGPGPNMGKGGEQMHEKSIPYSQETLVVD

T2: rat APJ receptor (rat, UniProt Q9JHG3 1-377)
T2 sequence (looked up): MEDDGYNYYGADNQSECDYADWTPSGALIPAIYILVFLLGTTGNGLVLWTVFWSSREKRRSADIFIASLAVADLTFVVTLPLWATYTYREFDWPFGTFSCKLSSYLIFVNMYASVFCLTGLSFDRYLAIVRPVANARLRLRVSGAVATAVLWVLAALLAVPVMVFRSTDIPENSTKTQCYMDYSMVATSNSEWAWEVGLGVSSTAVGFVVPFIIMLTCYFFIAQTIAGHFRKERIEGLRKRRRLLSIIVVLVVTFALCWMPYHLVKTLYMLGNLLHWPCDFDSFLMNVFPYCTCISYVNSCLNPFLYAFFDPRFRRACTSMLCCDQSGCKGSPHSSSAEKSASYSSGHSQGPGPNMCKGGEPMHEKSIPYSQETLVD


What was measured:
human APJ receptor = biological target: T1, human APJ receptor; assay: cell-based or functional assay
rat APJ receptor = biological target: T2, rat APJ receptor; assay: cell-based or functional assay

Row | EC50 Human APJ Receptor (human APJ receptor) | EC50 Rat APJ Receptor (rat APJ receptor) | Binder
1 | 1.75 nM | 2.57 nM | Pentadecanoyl-[γGlu][AEEA][AEEA][Orn]F[hArg][hArg]QRP[hArg][NMeL]SHKG[Oic][Nle][2Nal]-OH (SMILES CCCCCCCCCCCCCCC(=O)N[C@@H](CCC(=O)NCCOCCOCC(=O)NCCOCCOCC(=O)N[C@@H](CCCN)C(=O)N[C@@H](Cc1ccccc1)C(=O)N[C@@H](CCCCNC(=N)N)C(=O)N[C@@H](CCCCNC(=N)N)C(=O)N[C@@H](CCC(N)=O)C(=O)N[C@@H](CCCNC(=N)N)C(=O)N1CCC[C@H]1C(=O)N[C@@H](CCCCNC(=N)N)C(=O)N(C)[C@@H](CC(C)C)C(=O)N[C@@H](CO)C(=O)N[C@@H](Cc1c[nH]cn1)C(=O)N[C@@H](CCCCN)C(=O)NCC(=O)N1[C@H](C(=O)N[C@@H](CCCC)C(=O)N[C@@H](Cc2ccc3ccccc3c2)C(=O)O)C[C@@H]2CCCC[C@@H]21)C(=O)O) [apelin polypeptide SEQ ID NO: 258]
2 | 48.5 nM | 75 nM | {C18 diacid}-[γGlu][AEEA][AEEA][Orn]F[hArg][hArg]QRP[hArg][NMeL]SHKG[Oic][Nle][2Nal]-OH (SMILES CCCC[C@H](NC(=O)[C@@H]1C[C@@H]2CCCC[C@@H]2N1C(=O)CNC(=O)[C@H](CCCCN)NC(=O)[C@H](Cc1c[nH]cn1)NC(=O)[C@H](CO)NC(=O)[C@H](CC(C)C)N(C)C(=O)[C@H](CCCCNC(=N)N)NC(=O)[C@@H]1CCCN1C(=O)[C@H](CCCNC(=N)N)NC(=O)[C@H](CCC(N)=O)NC(=O)[C@H](CCCCNC(=N)N)NC(=O)[C@H](CCCCNC(=N)N)NC(=O)[C@H](Cc1ccccc1)NC(=O)[C@H](CCCN)NC(=O)COCCOCCNC(=O)COCCOCCNC(=O)CC[C@H](NC(=O)CCCCCCCCCCCCCCCCC(=O)O)C(=O)O)C(=O)N[C@@H](Cc1ccc2ccccc2c1)C(=O)O) [apelin polypeptide SEQ ID NO: 260]
3 | 4.42 nM | 6.71 nM | Pentadecanoyl-[γGlu][AEEA][AEEA][hArg][dR]Q[hArg]P[dR][NMeL]SHKG[Oic][Phe(4-I)]P[dBip]-OH (SMILES CCCCCCCCCCCCCCC(=O)N[C@@H](CCC(=O)NCCOCCOCC(=O)NCCOCCOCC(=O)N[C@@H](CCCCNC(=N)N)C(=O)N[C@H](CCCNC(=N)N)C(=O)N[C@@H](CCC(N)=O)C(=O)N[C@@H](CCCCNC(=N)N)C(=O)N1CCC[C@H]1C(=O)N[C@H](CCCNC(=N)N)C(=O)N(C)[C@@H](CC(C)C)C(=O)N[C@@H](CO)C(=O)N[C@@H](Cc1c[nH]cn1)C(=O)N[C@@H](CCCCN)C(=O)NCC(=O)N1[C@H](C(=O)N[C@@H](Cc2ccc(I)cc2)C(=O)N2CCC[C@H]2C(=O)N[C@H](Cc2ccc(-c3ccccc3)cc2)C(=O)O)C[C@@H]2CCCC[C@@H]21)C(=O)O) [apelin polypeptide SEQ ID NO: 262]
4 | 4.74 nM | 9.38 nM | Tridecanoyl-[γGlu][AEEA][AEEA][hArg][dR]Q[hArg]P[dR][NMeL]SHKG[Oic][Phe(4-I)]P[dBip]-OH (SMILES CCCCCCCCCCCCC(=O)N[C@@H](CCC(=O)NCCOCCOCC(=O)NCCOCCOCC(=O)N[C@@H](CCCCNC(=N)N)C(=O)N[C@H](CCCNC(=N)N)C(=O)N[C@@H](CCC(N)=O)C(=O)N[C@@H](CCCCNC(=N)N)C(=O)N1CCC[C@H]1C(=O)N[C@H](CCCNC(=N)N)C(=O)N(C)[C@@H](CC(C)C)C(=O)N[C@@H](CO)C(=O)N[C@@H](Cc1c[nH]cn1)C(=O)N[C@@H](CCCCN)C(=O)NCC(=O)N1[C@H](C(=O)N[C@@H](Cc2ccc(I)cc2)C(=O)N2CCC[C@H]2C(=O)N[C@H](Cc2ccc(-c3ccccc3)cc2)C(=O)O)C[C@@H]2CCCC[C@@H]21)C(=O)O) [apelin polypeptide SEQ ID NO: 261]
5 | 2.59 nM | 2.09 nM | Heptadecanoyl-[γGlu][AEEA][AEEA][Orn]F[hArg][hArg]QRP[hArg][NMeL]SHKG[Oic][Nle][2Nal]-OH (SMILES CCCCCCCCCCCCCCCCC(=O)N[C@@H](CCC(=O)NCCOCCOCC(=O)NCCOCCOCC(=O)N[C@@H](CCCN)C(=O)N[C@@H](Cc1ccccc1)C(=O)N[C@@H](CCCCNC(=N)N)C(=O)N[C@@H](CCCCNC(=N)N)C(=O)N[C@@H](CCC(N)=O)C(=O)N[C@@H](CCCNC(=N)N)C(=O)N1CCC[C@H]1C(=O)N[C@@H](CCCCNC(=N)N)C(=O)N(C)[C@@H](CC(C)C)C(=O)N[C@@H](CO)C(=O)N[C@@H](Cc1c[nH]cn1)C(=O)N[C@@H](CCCCN)C(=O)NCC(=O)N1[C@H](C(=O)N[C@@H](CCCC)C(=O)N[C@@H](Cc2ccc3ccccc3c2)C(=O)O)C[C@@H]2CCCC[C@@H]21)C(=O)O) [apelin polypeptide SEQ ID NO: 259]
6 | 1.49 nM | 3.14 nM | Tridecanoyl-[γGlu][AEEA][AEEA][Orn]F[hArg][hArg]QRP[hArg][NMeL]SHKG[Oic][Nle][2Nal]-OH (SMILES CCCCCCCCCCCCC(=O)N[C@@H](CCC(=O)NCCOCCOCC(=O)NCCOCCOCC(=O)N[C@@H](CCCN)C(=O)N[C@@H](Cc1ccccc1)C(=O)N[C@@H](CCCCNC(=N)N)C(=O)N[C@@H](CCCCNC(=N)N)C(=O)N[C@@H](CCC(N)=O)C(=O)N[C@@H](CCCNC(=N)N)C(=O)N1CCC[C@H]1C(=O)N[C@@H](CCCCNC(=N)N)C(=O)N(C)[C@@H](CC(C)C)C(=O)N[C@@H](CO)C(=O)N[C@@H](Cc1c[nH]cn1)C(=O)N[C@@H](CCCCN)C(=O)NCC(=O)N1[C@H](C(=O)N[C@@H](CCCC)C(=O)N[C@@H](Cc2ccc3ccccc3c2)C(=O)O)C[C@@H]2CCCC[C@@H]21)C(=O)O) [apelin polypeptide SEQ ID NO: 257]
7 | 10.3 nM | 281 nM | Tridecanoyl-[γGlu][AEEA][AEEA]Q[dR]P[NMeR][Cha]SHKG[Oic][Nle]P[Tic]-OH (SMILES CCCCCCCCCCCCC(=O)N[C@@H](CCC(=O)NCCOCCOCC(=O)NCCOCCOCC(=O)N[C@@H](CCC(N)=O)C(=O)N[C@H](CCCNC(=N)N)C(=O)N1CCC[C@H]1C(=O)N(C)[C@@H](CCCNC(=N)N)C(=O)N[C@@H](CC1CCCCC1)C(=O)N[C@@H](CO)C(=O)N[C@@H](Cc1c[nH]cn1)C(=O)N[C@@H](CCCCN)C(=O)NCC(=O)N1[C@H](C(=O)N[C@@H](CCCC)C(=O)N2CCC[C@H]2C(=O)N2Cc3ccccc3C[C@H]2C(=O)O)C[C@@H]2CCCC[C@@H]21)C(=O)O) [apelin polypeptide SEQ ID NO: 244]
8 | 0.533 nM | 0.757 nM | Ac-[hArg][hArg][dQ][hArg]P[dR][NMeL]SHKG[Oic][Phe(4-I)]P[dBip]-OH [apelin polypeptide SEQ ID NO: 19]
9 | 1.19 nM | 10.3 nM | Heptadecanoyl-[γGlu][AEEA][AEEA][hArg]Q[dR]P[NMeR][Cha]SHKG[Oic][Nle]P[Tic]-OH (SMILES CCCCCCCCCCCCCCCCC(=O)N[C@@H](CCC(=O)NCCOCCOCC(=O)NCCOCCOCC(=O)N[C@@H](CCCCNC(=N)N)C(=O)N[C@@H](CCC(N)=O)C(=O)N[C@H](CCCNC(=N)N)C(=O)N1CCC[C@H]1C(=O)N(C)[C@@H](CCCNC(=N)N)C(=O)N[C@@H](CC1CCCCC1)C(=O)N[C@@H](CO)C(=O)N[C@@H](Cc1c[nH]cn1)C(=O)N[C@@H](CCCCN)C(=O)NCC(=O)N1[C@H](C(=O)N[C@@H](CCCC)C(=O)N2CCC[C@H]2C(=O)N2Cc3ccccc3C[C@H]2C(=O)O)C[C@@H]2CCCC[C@@H]21)C(=O)O) [apelin polypeptide SEQ ID NO: 243]
10 | 3.99 nM | 5.91 nM | Heptadecanoyl-[γGlu][AEEA][AEEA][hArg][dR]Q[hArg]P[dR][NMeL]SHKG[Oic][Phe(4-I)]P[dBip]-OH (SMILES CCCCCCCCCCCCCCCCC(=O)N[C@@H](CCC(=O)NCCOCCOCC(=O)NCCOCCOCC(=O)N[C@@H](CCCCNC(=N)N)C(=O)N[C@H](CCCNC(=N)N)C(=O)N[C@@H](CCC(N)=O)C(=O)N[C@@H](CCCCNC(=N)N)C(=O)N1CCC[C@H]1C(=O)N[C@H](CCCNC(=N)N)C(=O)N(C)[C@@H](CC(C)C)C(=O)N[C@@H](CO)C(=O)N[C@@H](Cc1c[nH]cn1)C(=O)N[C@@H](CCCCN)C(=O)NCC(=O)N1[C@H](C(=O)N[C@@H](Cc2ccc(I)cc2)C(=O)N2CCC[C@H]2C(=O)N[C@H](Cc2ccc(-c3ccccc3)cc2)C(=O)O)C[C@@H]2CCCC[C@@H]21)C(=O)O) [apelin polypeptide SEQ ID NO: 263]
